Assay results from paper PMC9513282.
HiLyteFluor 488 = N-terminal fluorophore; QXL 520 = dark quencher

Experiments:
[1] = target: AMUC_1438 FL construct (Akkermansia muciniphila) (UniProt B2UKY7)
[2] = target: AMUC_1438 CAT construct (residues 41-427) (Akkermansia muciniphila) (UniProt B2UKY7)

Binder: {HiLyteFluor 488}-TPSPSTPPTK-{QXL 520} (not fully specified (residue 5); printed as TPSP**S**TPPTK) [IgA1FRET, custom FRET O-glycopeptide substrate based on the IgA1 hinge region]
- KM of hydrolysis of the IgA1FRET O-glycopeptide (FRET dequenching, steady-state kinetics, Michaelis-Menten fit; 1 μM enzyme, 0 to 1000 μM substrate, 20 mM Tris-HCl pH 7.0, 100 μM zinc chloride) [1]: 122 μM
- KM of hydrolysis of the IgA1FRET O-glycopeptide (FRET dequenching, steady-state kinetics, Michaelis-Menten fit; 1 μM enzyme, 0 to 1000 μM substrate, 20 mM Tris-HCl pH 7.0, 100 μM zinc chloride) [2]: 300 μM
